Data taken from patent publication US12091776B2, “Protease activity profiling via programmable phage display of comprehensive proteome-scale peptide libraries” (THE JOHNS HOPKINS UNIVERSITY, priority 2019, dated 2024).

B1: VASN: Vasorin, known ADAM17 substrate; library peptide amino acids 496-585 (protein)
peptide: LTYRNLSGPDKRLVTLRLPASLAEYTVTQLRPNATYSVCVMPLGPGRVPEGEEACGEAHTPPAVHSNHAPVTQAREGNLPLLIAPALAAV
B2: PVTSTSSASTGHATPLPVTGLSSATTDDTTRLPVTDVSSASTGQATPLPVTSLSSVSTGDTTPLPVTSPSSASTGHASPLLVTDASSAST (protein, listed as Homo sapiens)
chain: PVTSTSSASTGHATPLPVTGLSSATTDDTTRLPVTDVSSASTGQATPLPVTSLSSVSTGDTTPLPVTSPSSASTGHASPLLVTDASSAST
B3: AIRLANSTASVSRGSMQELDMLAGLRRSHAPQSRSSLNAKPHDSLDLNCDSRDFVAAIISIPTPPANTPDESQPSSPGGGGRAGSTLRNS (protein, listed as Homo sapiens)
chain: AIRLANSTASVSRGSMQELDMLAGLRRSHAPQSRSSLNAKPHDSLDLNCDSRDFVAAIISIPTPPANTPDESQPSSPGGGGRAGSTLRNS
B4: YVAPLTAQPATYRAQPSVSLGAAYRAQPSASLGVGYRTQPMTAQAASYRAQPSVSLGAPYRGQLASPSSQSAAASSLGPYGGAQPSASAL (protein, listed as Homo sapiens)
chain: YVAPLTAQPATYRAQPSVSLGAAYRAQPSASLGVGYRTQPMTAQAASYRAQPSVSLGAPYRGQLASPSSQSAAASSLGPYGGAQPSASAL
B5: HSALPFRLQLRRGEARLGEERHFQESGNSSWEILRASKAEEGTYECTAVSRAGTGRAKAQIVVTDPPPQLVPAPNVTVSPGETAVLSCRV (protein, listed as Homo sapiens)
chain: HSALPFRLQLRRGEARLGEERHFQESGNSSWEILRASKAEEGTYECTAVSRAGTGRAKAQIVVTDPPPQLVPAPNVTVSPGETAVLSCRV
B6: KAGVVTLHSVGPTAATGTTAGTGLLQTSKPLVTSVANTVTTVSLQPEKPVVSGTAVTLSLPAVTFGETSGAAICLPSVKPVVSSAGTTS (protein, listed as Homo sapiens)
chain: KAGVVTLHSVGPTAATGTTAGTGLLQTSKPLVTSVANTVTTVSLQPEKPVVSGTAVTLSLPAVTFGETSGAAICLPSVKPVVSSAGTTS
B7: … (protein, listed as Homo sapiens)
chain: STRPVLASIEPELPMQLVSQDDESGQKKLHGLQAILVHEASGTTAITATATGYQESHLSSARTKQPHDPLVPLSASIELILVEDVRVSPE
B8: VLNSGARVWPSASALGLTAPPKDAEDRARPASGLRGARVLSEGREPRASLRVQVRPGLDVAAPGVCSLSCPSPPRSSAHPGPRGPLFPAL (protein, listed as Homo sapiens)
chain: VLNSGARVWPSASALGLTAPPKDAEDRARPASGLRGARVLSEGREPRASLRVQVRPGLDVAAPGVCSLSCPSPPRSSAHPGPRGPLFPAL
B9: RLALPLRSLSASSGWNESCSSQSDISLDHVQRRRSRLKEPPELQSSERAAGSPPAPGTMSKHRGKSSATCRCCVTYCEGENHLRNKSRAE (protein, listed as Homo sapiens)
chain: RLALPLRSLSASSGWNESCSSQSDISLDHVQRRRSRLKEPPELQSSERAAGSPPAPGTMSKHRGKSSATCRCCVTYCEGENHLRNKSRAE
B10: EPEPTPGLVLSKPALEEEEAPRALSLLSLPPKKRSILGLGQARPLEFLRTCYGGSFLVHESFLYKREKAVGDKVYWTCRDHALHGCRSRA (protein, listed as Homo sapiens)
chain: EPEPTPGLVLSKPALEEEEAPRALSLLSLPPKKRSILGLGQARPLEFLRTCYGGSFLVHESFLYKREKAVGDKVYWTCRDHALHGCRSRA
B11: ARQEKLAFQEDSRSTLSRRELDAAHTGTTGQDSDFPVTAASTVDFLKIKKSCEENVCRSLKDCEMEKCPDSCAHEMESVADHEPNKRILG (protein, listed as Homo sapiens)
chain: ARQEKLAFQEDSRSTLSRRELDAAHTGTTGQDSDFPVTAASTVDFLKIKKSCEENVCRSLKDCEMEKCPDSCAHEMESVADHEPNKRILG
B12: SSVSTGHTTPLHVTDASSASTGQATPLPVTSLSSVSTGDTTPLPVTSPSSASTGHATPLLVTDTSSASTGHATPLPVTDASSVSTDHATS (protein, listed as Homo sapiens)
chain: SSVSTGHTTPLHVTDASSASTGQATPLPVTSLSSVSTGDTTPLPVTSPSSASTGHATPLLVTDTSSASTGHATPLPVTDASSVSTDHATS
B13: QSVSPVQAPPPGGSAQLLPGKVLVPLAAPSMSVRGGGAGQPLPLVSPPFSVPVQNGAQPPSKIIQLTPVPVSTPSGLVPPLSPATLPGPT (protein, listed as Homo sapiens)
chain: QSVSPVQAPPPGGSAQLLPGKVLVPLAAPSMSVRGGGAGQPLPLVSPPFSVPVQNGAQPPSKIIQLTPVPVSTPSGLVPPLSPATLPGPTA
B14: ATPGAPGSSTPGEADIGNTSFGKSGKSGHDSLTVLNPAFLRRTPTVSAASTTSSPVSKHTDAASATAVTISGSKPGTPGTPGGATSGGKI (protein, listed as Homo sapiens)
chain: ATPGAPGSSTPGEADIGNTSFGKSGKSGHDSLTVLNPAFLRRTPTVSAASTTSSPVSKHTDAASATAVTISGSKPGTPGTPGGATSGGKI
B15: EIVPASLQRVRRPVAMVMPARRTPHVQAVQGPLGSPPKRGPLPTEEQRVYRRKELEEVSPETPVVPATTQRTLARPGPEPAPATDERDRV (protein, listed as Homo sapiens)
chain: EIVPASLQRVRRPVAMVMPARRTPHVQAVQGPLGSPPKRGPLPTEEQRVYRRKELEEVSPETPVVPATTQRTLARPGPEPAPATDERDRV
B16: KVATLPLSSRAGAPPAAVPIINMILPTVPALPGPGPGPGRAPPGGLTQPRGTENREVGIGGDQGPHDKGVKRTAEVPVSEASGQAPPAKA (protein, listed as Homo sapiens)
chain: KVATLPLSSRAGAPPAAVPIINMILPTVPALPGPGPGPGRAPPGGLTQPRGTENREVGIGGDQGPHDKGVKRTAEVPVSEASGQAPPAKA
B17: SPLIAPVMGTVAVSLSSPLLSSTATPPGVSQNLLANPMSNLVLPEAPRLRLAEPLRGGPTGPQSPACVVPTATTKVPLSTEPPQSTQDPE (protein, listed as Homo sapiens)
chain: SPLIAPVMGTVAVSLSSPLLSSTATPPGVSQNLLANPMSNLVLPEAPRLRLAEPLRGGPTGPQSPACVVPTATTKVPLSTEPPQSTQDPE
B18: MELQSRPEALAVELARHQNGDLKKQLHERQPRIAALSDKQALGTITAVPVTGPQVSSLQRLAGQGAAVLPQVRPKTLIPDSLPVAPGRDR (protein, listed as Homo sapiens)
chain: MELQSRPEALAVELARHQNGDLKKQLHERQPRIAALSDKQALGTITAVPVTGPQVSSLQRLAGQGAAVLPQVRPKTLIPDSLPVAPGRDR
B19: IAAKAQLARQQSPSPIRHSPSPVRHVRAPTPSPVRSVSPAARISTSPIRSVRSPLLMRKTQASTVATGPEVPPPWKQEGYVASSSEAEMR (protein, listed as Homo sapiens)
chain: IAAKAQLARQQSPSPIRHSPSPVRHVRAPTPSPVRSVSPAARISTSPIRSVRSPLLMRKTQASTVATGPEVPPPWKQEGYVASSSEAEMR
B20: PARLLGPSLTSTTPASSSSGSSSRGPSDTSSRFSKEQRGVAQPLAQLRSCPQEEGPRGRGLAARPLENRAGGPVARSEEPGAPLPVAVGT (protein, listed as Homo sapiens)
chain: PARLLGPSLTSTTPASSSSGSSSRGPSDTSSRFSKEQRGVAQPLAQLRSCPQEEGPRGRGLAARPLENRAGGPVARSEEPGAPLPVAVGT

The molecules below were run against T1, ADAM17 (Homo sapiens, UniProt P78536) (assay: SEPARATE assay: human peptidome library digest with ADAM17). Details: human library, ADAM17; peptide amino acids 496-585.
T1 construct: purchased RnD Systems
T1 sequence (P78536 215-824): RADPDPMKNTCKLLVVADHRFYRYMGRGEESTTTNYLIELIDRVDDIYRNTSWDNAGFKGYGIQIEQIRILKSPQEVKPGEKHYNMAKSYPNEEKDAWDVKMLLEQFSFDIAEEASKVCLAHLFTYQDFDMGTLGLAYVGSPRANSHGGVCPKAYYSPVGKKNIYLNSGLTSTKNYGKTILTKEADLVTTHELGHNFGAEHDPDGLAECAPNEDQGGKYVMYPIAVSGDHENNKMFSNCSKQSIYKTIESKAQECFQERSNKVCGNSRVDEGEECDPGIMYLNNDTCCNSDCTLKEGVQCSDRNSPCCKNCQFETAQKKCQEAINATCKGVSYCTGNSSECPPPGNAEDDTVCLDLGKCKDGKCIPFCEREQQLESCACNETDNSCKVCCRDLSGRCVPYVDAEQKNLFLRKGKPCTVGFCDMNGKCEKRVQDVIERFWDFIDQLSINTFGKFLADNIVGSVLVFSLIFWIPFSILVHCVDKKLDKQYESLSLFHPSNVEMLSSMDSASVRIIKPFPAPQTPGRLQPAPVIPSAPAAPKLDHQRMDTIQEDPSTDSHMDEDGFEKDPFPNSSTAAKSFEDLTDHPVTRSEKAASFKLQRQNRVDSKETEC
Format: biochemical
Experimental: Streptavidin-coupled magnetic beads (Dynabeads M-280 Streptavidin, ThermoFisher Scientific) were washed (TBS, pH 7.4, 0.01% NP40) and resuspended in binding buffer (TBS, pH 7.4, 0.001% NP40) containing 2E9 plaque forming units per 10 μl of bead slurry. End-over-end mixing at room temperature was performed for one hour. Phage-coated beads were washed three times with wash buffer and transferred into two protein LoBind Eppendorf tubes blocked with TBS, pH 7.4 containing 1% BSA.
Digestion occurred overnight at room temperature with end-over-end rotation. […] To remove any residual biotinylated phage that may have been nonspecifically released, the 150 μl supernatant of the quenched digest reaction is then incubated with a fresh 10 μl of slurry volume M280 streptavidin beads (pre-washed three times with wash buffer) in a LoBind Eppendorf tube blocked with TBS, pH 7.4 containing 1% BSA at room temperature for one hour with end-over-end rotation.
10 μl slurry volume of protein G magnetic dynabeads were washed in buffer (TBS, pH 7.4, 0.01% NP40) and then resuspended in 50 μl TBS, pH 7.4, 0.01% NP40 containing 4 μg of M2 FLAG antibody for thirty minutes at room temperature with end-over-end rotation. The 150 μl quenched digest reaction is added to the 10 μl FLAG-coated Protein G beads and incubated for 60 minutes at room temperature with end-over-end rotation to capture phage particles released at the protease digest step. Beads are rinsed once with 100 μl wash buffer and stored at −80° C. until PCR amplification.
Library PCR preparation, high-throughput DNA sequencing, and peptide read count data generation was performed as described previously.^44 Briefly, library peptide inserts are amplified by resuspending 10 μl of FLAG-coated Protein G beads in PCR1 master mix containing the T7-Pep2_PCR1_F forward primer ([…]) (SEQ ID NO:3) and a T7-SEPARATE vector specific reverse primer ([…]) (SEQ ID NO:4), which includes an adapter sequence for sample-specific barcoding and Illumina P7 adapter incorporation during a subsequent PCR2 reaction. The PCR2 amplicons are pooled and sequenced using an Illumina NextSeq instrument in standard output mode to obtain single-end 50 nucleotide reads. Dual indexed sample demultiplexing and clonal read count determination were performed using exact sequence matching. […] To calculate the normalization factor, 100 peptides were randomly selected from the mock digest conditions with a read count ranging between 10 and 40. The median read count value for these 100 peptides is calculated for each sample. The random peptide selection and median calculation is performed 20 times and the average of the 20 median values is calculated for each sample. Finally, the normalization factor is calculated by dividing the average median value for each sample by that for one of the mock digest conditions. Read counts are then converted to normalized read counts by dividing each sample's read count values by the normalization factor. Fold enrichments are calculated for each peptide by dividing their normalized read counts in the digest condition by the normalized read counts in the mock digest condition. The fold enrichments can be visualized in an MA plot by transforming the normalized read count data into a log ratio (M, on the y-axis) and a mean average (A, on the x-axis) between the digest and mock digest conditions.

Molecule	known substrate peptide identified by SEPARATE
B1	identified

Same assay, conditions: top 20 enriched peptides, human library (90-aa tiles); digest vs mock digest

Molecule	Adam17 Fold Change
B2	41.41 fold
B3	57.97 fold
B4	39.99 fold
B5	43.29 fold
B6	39.07 fold
B7	34.57 fold
B8	44.03 fold
B9	39.89 fold
B10	35.48 fold
B11	34.10 fold
B12	48.17 fold
B13	57.55 fold
B14	39.34 fold
B15	34.93 fold
B16	35.48 fold
B17	51.48 fold
B18	38.34 fold
B19	37.14 fold
B20	45.89 fold
